From patent CN111303278A (JANSSEN VACCINES & PREVENTION BV, dated 2020)

B1: CB017.5L (antibody, V domains shown)
VH: QVQLVESGGGVVQPGRSLRLSCSASGFTFSVYAMHWVRQAPGQGLEWVAIIWYDGSNKYYADSVKGRFTISRDNSKETLYLQMNSLRVEDTAVYYCARDPIVGHTRDGLDVWGQGTTVTVSS
VL: SYELTQPPSVSVSPGQTARVTCSGDAMAEQYTYWYQQKPGQAPVLIIFKDTERPSGIPERFSGSSSGTTVTLTISGVQTEDEADYYCQSTDSSGTSWVFGGGTKLTVL
B2: CB030.1 (antibody, V domains shown)
VH: QVQLVQSGAEMKRPGSSVKVSCKASGGTFSTFAINWVRQAPGQGFEWMGGVIPGFDSANYAQKFQGRLTMSADESTSTVYMELSSLRSDDTAVYYCAGNSGYCSGDSCAPNWGPGTLVTVSS
VL: DIVMTQSPLSLPVTPGEPASISCRSSQSLVHSNGYSYLDWYLQKPGQSPQLLIYLGSNRPSGVPDRFSGSGSGTDFTLKISRVEAEDVGVYFCMQNLQTPTFGGGTKVEIK

Molecular target: Sym-1789
Test: ELISA, biotinylated peptide on avidin plate, mAb titrated

Binder	IC50 [µg/mL]
B1	~0.02
B2	~0.02
